The values that follow come from patent US20180245075.

The target of data set [1] is T1, DpnI binding domain-VP64 (synR-VP64) (Streptococcus pneumoniae) (UniProt P0A459).
T1 sequence: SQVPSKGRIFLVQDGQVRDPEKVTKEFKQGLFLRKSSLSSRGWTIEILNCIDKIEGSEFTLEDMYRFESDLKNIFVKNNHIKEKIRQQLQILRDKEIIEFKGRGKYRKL
Kind of data set: cell_activity. Particulars: N6-methyladenine at A of GATC; integrated interspersed reporter with synI; >100-fold episomal with ZF-Dam(WT).

In data set [2] the target is T2, DpnI binding domain-Dam(R95A) (synRW) (Streptococcus pneumoniae / Escherichia coli) (UniProt P0AEE8).
T2 sequence: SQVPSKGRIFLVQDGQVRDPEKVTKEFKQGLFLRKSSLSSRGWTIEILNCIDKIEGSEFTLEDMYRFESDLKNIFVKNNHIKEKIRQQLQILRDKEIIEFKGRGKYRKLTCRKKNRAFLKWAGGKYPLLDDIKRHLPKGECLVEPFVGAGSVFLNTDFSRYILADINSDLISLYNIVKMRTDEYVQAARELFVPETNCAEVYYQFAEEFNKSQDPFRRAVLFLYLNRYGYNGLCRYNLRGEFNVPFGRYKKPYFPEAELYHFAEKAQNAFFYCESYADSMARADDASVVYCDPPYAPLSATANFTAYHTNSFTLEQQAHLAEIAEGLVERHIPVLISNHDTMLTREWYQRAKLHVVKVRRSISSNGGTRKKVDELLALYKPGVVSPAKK
Kind of data set: cell_activity. Particulars: N6-methyladenine at A of GATC; with inducible writer and DpnI-VP64; mCherry-Dam(R95A) gave no increase.

Take “GATC (double strand) [adenine-methylated GATC sites of reporter]”: the activity (fold GFP activation) in data set [1] was determined as 30. This sequence had an activity (fold increase in GFP activation) in data set [2] of 2.
